B1: EEHEE_rd4_0647 (parent)
chain: MQVTWGNVTVTFSNPEEAKKYAEKVARKLGGQVELHNGQFRIK

Variants of: B1
Experiment: folding stability dG (cDNA display proteolysis); higher = more stable
Conditions: PBS, room temperature

Row | Variant | folding stability dG [kcal/mol]
1 | MQVTWGNVTDTFSNPEEAKKYAEKVARKLGGQVELHNGQFRIK [V10D] | 0.472
2 | MQVTWGNVTETFSNPEEAKKYAEKVARKLGGQVELHNGQFRIK [V10E] | 1.5
3 | MQVTWGNVTFTFSNPEEAKKYAEKVARKLGGQVELHNGQFRIK [V10F] | 2.53
4 | MQVTWGNVTGTFSNPEEAKKYAEKVARKLGGQVELHNGQFRIK [V10G] | 0.582
5 | MQVTWGNVTHTFSNPEEAKKYAEKVARKLGGQVELHNGQFRIK [V10H] | 2.15
6 | MQVTWGNVTITFSNPEEAKKYAEKVARKLGGQVELHNGQFRIK [V10I] | 2.94
7 | MQVTWGNVTKTFSNPEEAKKYAEKVARKLGGQVELHNGQFRIK [V10K] | 2.66
8 | MQVTWGNVTLTFSNPEEAKKYAEKVARKLGGQVELHNGQFRIK [V10L] | 2.76
9 | MQVTWGNVTMTFSNPEEAKKYAEKVARKLGGQVELHNGQFRIK [V10M] | 2.67
10 | MQVTWGNVTNTFSNPEEAKKYAEKVARKLGGQVELHNGQFRIK [V10N] | 1.2
11 | MQVTWGNVTPTFSNPEEAKKYAEKVARKLGGQVELHNGQFRIK [V10P] | -0.399
12 | MQVTWGNVTQTFSNPEEAKKYAEKVARKLGGQVELHNGQFRIK [V10Q] | 1.85
13 | MQVTWGNVTRTFSNPEEAKKYAEKVARKLGGQVELHNGQFRIK [V10R] | 2.65
14 | MQVTWGNVTSTFSNPEEAKKYAEKVARKLGGQVELHNGQFRIK [V10S] | 1.23
15 | MQVTWGNVTTTFSNPEEAKKYAEKVARKLGGQVELHNGQFRIK [V10T] | 1.74
16 | MQVTWGNVTWTFSNPEEAKKYAEKVARKLGGQVELHNGQFRIK [V10W] | 2.84
17 | MQVTWGNVTYTFSNPEEAKKYAEKVARKLGGQVELHNGQFRIK [V10Y] | 2.7
18 | MQVTWGNVTVAFSNPEEAKKYAEKVARKLGGQVELHNGQFRIK [T11A] | 2.38
19 | MQVTWGNVTVCFSNPEEAKKYAEKVARKLGGQVELHNGQFRIK [T11C] | 3.51
20 | MQVTWGNVTVDFSNPEEAKKYAEKVARKLGGQVELHNGQFRIK [T11D] | 1.99

Row | Variant | folding stability dG [kcal/mol]
21 | MQVTWGNVTVEFSNPEEAKKYAEKVARKLGGQVELHNGQFRIK [T11E] | 2.34
22 | MQVTWGNVTVFFSNPEEAKKYAEKVARKLGGQVELHNGQFRIK [T11F] | 3
23 | MQVTWGNVTVGFSNPEEAKKYAEKVARKLGGQVELHNGQFRIK [T11G] | 2.05
24 | MQVTWGNVTVHFSNPEEAKKYAEKVARKLGGQVELHNGQFRIK [T11H] | 2.72
25 | MQVTWGNVTVIFSNPEEAKKYAEKVARKLGGQVELHNGQFRIK [T11I] | 2.71
26 | MQVTWGNVTVKFSNPEEAKKYAEKVARKLGGQVELHNGQFRIK [T11K] | 2.49
27 | MQVTWGNVTVLFSNPEEAKKYAEKVARKLGGQVELHNGQFRIK [T11L] | 2.62
28 | MQVTWGNVTVMFSNPEEAKKYAEKVARKLGGQVELHNGQFRIK [T11M] | 2.64
29 | MQVTWGNVTVNFSNPEEAKKYAEKVARKLGGQVELHNGQFRIK [T11N] | 2.58
30 | MQVTWGNVTVPFSNPEEAKKYAEKVARKLGGQVELHNGQFRIK [T11P] | 1.65
31 | MQVTWGNVTVQFSNPEEAKKYAEKVARKLGGQVELHNGQFRIK [T11Q] | 2.53
32 | MQVTWGNVTVRFSNPEEAKKYAEKVARKLGGQVELHNGQFRIK [T11R] | 2.62
33 | MQVTWGNVTVSFSNPEEAKKYAEKVARKLGGQVELHNGQFRIK [T11S] | 2.73
34 | MQVTWGNVTVVFSNPEEAKKYAEKVARKLGGQVELHNGQFRIK [T11V] | 2.59
35 | MQVTWGNVTVWFSNPEEAKKYAEKVARKLGGQVELHNGQFRIK [T11W] | 3.23
36 | MQVTWGNVTVYFSNPEEAKKYAEKVARKLGGQVELHNGQFRIK [T11Y] | 3.02
37 | MQVTWGNVTVTASNPEEAKKYAEKVARKLGGQVELHNGQFRIK [F12A] | 0.449
38 | MQVTWGNVTVTCSNPEEAKKYAEKVARKLGGQVELHNGQFRIK [F12C] | 2.49
39 | MQVTWGNVTVTESNPEEAKKYAEKVARKLGGQVELHNGQFRIK [F12E] | -0.423
40 | MQVTWGNVTVTGSNPEEAKKYAEKVARKLGGQVELHNGQFRIK [F12G] | -0.079

Row | Variant | folding stability dG [kcal/mol]
41 | MQVTWGNVTVTHSNPEEAKKYAEKVARKLGGQVELHNGQFRIK [F12H] | 0.464
42 | MQVTWGNVTVTISNPEEAKKYAEKVARKLGGQVELHNGQFRIK [F12I] | 1.43
43 | MQVTWGNVTVTKSNPEEAKKYAEKVARKLGGQVELHNGQFRIK [F12K] | 0.98
44 | MQVTWGNVTVTLSNPEEAKKYAEKVARKLGGQVELHNGQFRIK [F12L] | 1.96
45 | MQVTWGNVTVTMSNPEEAKKYAEKVARKLGGQVELHNGQFRIK [F12M] | 1.38
46 | MQVTWGNVTVTNSNPEEAKKYAEKVARKLGGQVELHNGQFRIK [F12N] | -0.258
47 | MQVTWGNVTVTPSNPEEAKKYAEKVARKLGGQVELHNGQFRIK [F12P] | -0.871
48 | MQVTWGNVTVTQSNPEEAKKYAEKVARKLGGQVELHNGQFRIK [F12Q] | 0.017
49 | MQVTWGNVTVTRSNPEEAKKYAEKVARKLGGQVELHNGQFRIK [F12R] | 0.663
50 | MQVTWGNVTVTSSNPEEAKKYAEKVARKLGGQVELHNGQFRIK [F12S] | -0.107
51 | MQVTWGNVTVTTSNPEEAKKYAEKVARKLGGQVELHNGQFRIK [F12T] | 0.01
52 | MQVTWGNVTVTVSNPEEAKKYAEKVARKLGGQVELHNGQFRIK [F12V] | 0.887
53 | MQVTWGNVTVTWSNPEEAKKYAEKVARKLGGQVELHNGQFRIK [F12W] | 1.18
54 | MQVTWGNVTVTYSNPEEAKKYAEKVARKLGGQVELHNGQFRIK [F12Y] | 1.28
55 | MQVTWGNVTVTFANPEEAKKYAEKVARKLGGQVELHNGQFRIK [S13A] | 2.8
56 | MQVTWGNVTVTFCNPEEAKKYAEKVARKLGGQVELHNGQFRIK [S13C] | 3.28
57 | MQVTWGNVTVTFDNPEEAKKYAEKVARKLGGQVELHNGQFRIK [S13D] | 2.75
58 | MQVTWGNVTVTFENPEEAKKYAEKVARKLGGQVELHNGQFRIK [S13E] | 2.65
59 | MQVTWGNVTVTFFNPEEAKKYAEKVARKLGGQVELHNGQFRIK [S13F] | 2.49

— the MegaScale stability set (Tsuboyama et al. 2023)
